From patent publication US20150344570A1 (published 2015)
Changes are numbered by the printed parent chain.

B1: GpH7-G1d/GpL16-k0 (antibody, human IgG1, kappa)
heavy: not shown
light: DIVMTQSPLSLPVTPGEPASISCQASESLVHSNRNTYLHWYLQKPGQSPQLLIYKVSNRFSGVPDRFSGSGSGTDFTLKISRVEAEDVGVYYCSQNTHVPPTFGQGTKVEIERTVAAPSVFIFPPSDEQLKSGTASVVCLLNNFYPREAKVQWKVDNALQSGNSQESVTEQDSKDSTYSLSSTLTLSKADYEKHKVYACEVTHQGLSSPVTKSFNRGEC
notes: Anti-glypican-3 IgG1 whose H chain lacks the C-terminal Gly and Lys; Used as the native IgG1 control; also called native IgG1
B2: GpH7-G1d/GpL16-k0 (antibody, human IgG1, kappa)
heavy: not shown
light: B1 light
notes: Anti-glypican-3 IgG1 with C-terminal Gly and Lys removed; also called native IgG1
B3: GpH7-A5/GpH7-B3/GpL16-k0 (antibody, human IgG1, kappa)
heavy 1: not shown
heavy 2: not shown
light: B1 light
notes: also called A5/B3; HeCon Ab
B4: GpH7-A5/GpH7-B78/GpL16-k0 (antibody, human IgG1, kappa)
heavy 1: not shown
heavy 2: QVQLVQSGAEVKKPGASVTVSCKASGYTFTDYEMHWIRQPPGEGLEWIGAIDPKTGDTAYSESFQDRVTLTADKSTSTAYMELSSLTSEDTAVYYCTRFYSYTYWGQGTLVTVSSASTKGPSVFPLAPSSKSTSGGTAALGCLVKDYFPEPVTVSWNSGALTSGVHTFPAVLQSSGLYSLSSVVTVPSSSLGTQTYICNVNHKPSNTKVDKKVEPKSCDKTHTCPPCPAPELLGGPDVFLFPPKPKDTLMISRTPEVTCVVVDVSHEDPEVKFNWYVDGVEVHNAKTKPREEQYNSTYRVVSVLTVLHQDWLNGKEYKCKVSNKALPLPEEKTISKAKGQPREPQVYTLPPSRDELTKNQVSLTCLVKGFYPSDIAVEWESNGQPENNYKTTPPVLDSDGSFFLYSKLTVDKSRWQQGNVFSCSVMHEALHNHYTQESLSLSP
light: B1 light
notes: Heterodimerized anti-glypican-3 IgG1; also called A5/B78
B5: GpH7-A57/GpH7-B78/GpL16-k0 (antibody, human IgG1, kappa)
heavy 1: B4 heavy 2 with D354K, H433R, E437K
heavy 2: B4 heavy 2
light: B1 light
notes: Anti-glypican-3 IgG1; also called A57/B78
B6: GpH7-TA7/GpH7-B3/GpL16-k0 (antibody, human IgG1, kappa)
heavy 1: B4 heavy 2 with L232Y, G234W, D237S, S296A, L328A, E330I, D354K, H433R, E437K
heavy 2: not shown
light: B1 light
notes: Heterodimerized anti-glypican-3 IgG1; also called TA7/B3
B7: GpH7-TA7/GpH7-B78/GpL16-k0 (antibody, human IgG1, kappa)
heavy 1: B4 heavy 2 with L232Y, G234W, D237S, S296A, L328A, E330I, D354K, H433R, E437K
heavy 2: B4 heavy 2
light: B1 light
notes: Heterodimerized anti-glypican-3 IgG1; also called TA7/B78
B8: GpH7-TA7/GpH7-TA45/GpL16-k0 (antibody, human IgG1, kappa)
heavy 1: B4 heavy 2 with L232Y, G234W, D237S, S296A, L328A, E330I, D354K, H433R, E437K
heavy 2: B4 heavy 2 with L232Y, G234W, D237S, S296A, L328A, E330I
light: B1 light
notes: Anti-glypican-3 IgG1; also called TA7/TA45

Target: T1, FcγRIIIa (human, UniProt P08637 17-208)
T1 construct: extracellular domain; also called FcgRIIIa; CD16A; not shown: His tag attached to the C terminus
Assay: ratio of SPR KDs: KD of GpH7-G1d/GpL16-k0 divided by KD of this antibody
Method: The prepared antibodies were compared for the FcγRIIIa-binding activity using, as an indicator, KD for FcγRIIIa that was determined according to the method described in Reference Example 2.
(§1) Analysis of interaction between objective antibody and the FcγR was carried out using Biacore T100 (GE Healthcare). HBS-EP+ (GE Healthcare) was used as the running buffer, and the measurement temperature was set to 25° C. Chips produced by immobilizing the antigen peptide by the amine coupling method to a Series S Sencor Chip CM5 (GE Healthcare), or alternatively, chips produced by allowing preliminarily biotinylated antigen peptides to interact with and immobilize onto a Series S Sensor Chip SA (certified) (GE Healthcare) were used. Antibodies of interest were captured onto an antigen peptide-immobilized chip, and allowed to interact to each FcγR diluted with running buffer. To regenerate and repeatedly use the chip, the antibodies captured on the chip were washed off by reacting 10 mM glycine-HCl, pH 1.5.
Specifically, to calculate association rate constant ka (L/mol/s) and dissociation rate constant kd (1/s), sensorgrams obtained by measurement were processed for global fitting by Biacore Evaluation Software using 1:1 Langmuir binding model and dissociation constant KD (mol/1) was calculated from the resulting values.

T1 sequence (P08637 17-208): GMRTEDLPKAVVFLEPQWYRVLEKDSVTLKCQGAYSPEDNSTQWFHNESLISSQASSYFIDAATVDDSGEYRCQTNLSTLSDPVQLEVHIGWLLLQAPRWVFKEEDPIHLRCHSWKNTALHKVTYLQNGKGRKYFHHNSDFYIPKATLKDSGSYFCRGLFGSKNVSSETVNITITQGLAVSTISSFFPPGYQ

| Binder | KD ratio 1 [fold] |
| --- | --- |
| B1 | 1 |

Target: T2, FcγRIIIa F extracellular domain with C-terminal His tag (human, UniProt P08637 17-208)
T2 construct: extracellular domain; Soluble receptor, F158 allotype; also called FcgRIIIa F; FcgRIIIaF; not shown: His tag at the C terminus
Assay: SPR (Biacore); KD for FcγRIIb divided by KD for FcγRIIIa F
Method: The prepared antibodies were assayed as to the KDs for FcγRIIIa and FcγRIIb according to the method described in Reference Example 2.
as §1

T2 sequence (P08637 17-208): as above

| Binder | FcγRIIIa F/FcγRIIb ratio |
| --- | --- |
| B2 | 2.5 |
| B3 | 1.9 |
| B4 | 7.9 |
| B5 | 100 |
| B6 | 14 |
| B7 | 244 |
| B8 | 5.3 |
